Experimental data published in patent US12630600B2 (MEDIMMUNE LIMITED, priority 2022, dated 2026).
Starred links: 1 amine or outer side, 2 acyl side, 3 side chain; linkers in the order of their positions; H or OH if unused. Non-standard residues stand in square brackets, D forms with d. Groups on a side chain read outwards from the residue. No end group written: not given here. *: point of attachment. C20 diacid = O=C(O)CCCCCCCCCCCCCCCCCCC(=O)*; C18 diacid = O=C(O)CCCCCCCCCCCCCCCCC(=O)*; γGlu = O=C(O)[C@H](CCC(=O)[*:2])N[*:1]; αMeF = C[C@](N)(Cc1ccccc1)C(=O)O; AEEA = NCCOCCOCC(=O)O; Aib = CC(C)(N)C(=O)O

Columns and labels:
[1] = molecular target: human glucagon receptor (human, UniProt P47871); assay: cell-based or functional assay
[2] = molecular target: human GLP-1 receptor (human, UniProt P43220); assay: cell-based or functional assay

Binder	cAMP production EC50 [1]	cAMP production EC50 [2]
H[Aib]QGTFTSDVSK[αMeF]LDTK([AEEA-AEEA-γGlu-C18 diacid])RAQDFVQWLLE[Aib]G-NH2 (N-terminus assumed; SMILES CC(C)C[C@H](NC(=O)[C@H](Cc1c[nH]c2ccccc12)NC(=O)[C@H](CCC(N)=O)NC(=O)[C@@H](NC(=O)[C@H](Cc1ccccc1)NC(=O)[C@H](CC(=O)O)NC(=O)[C@H](CCC(N)=O)NC(=O)[C@H](C)NC(=O)[C@H](CCCNC(=N)N)NC(=O)[C@H](CCCCNC(=O)COCCOCCNC(=O)COCCOCCNC(=O)CC[C@H](NC(=O)CCCCCCCCCCCCCCCCC(=O)O)C(=O)O)NC(=O)[C@@H](NC(=O)[C@H](CC(=O)O)NC(=O)[C@H](CC(C)C)NC(=O)[C@](C)(Cc1ccccc1)NC(=O)[C@H](CCCCN)NC(=O)[C@H](CO)NC(=O)[C@@H](NC(=O)[C@H](CC(=O)O)NC(=O)[C@H](CO)NC(=O)[C@@H](NC(=O)[C@H](Cc1ccccc1)NC(=O)[C@@H](NC(=O)CNC(=O)[C@H](CCC(N)=O)NC(=O)C(C)(C)NC(=O)[C@@H](N)Cc1c[nH]cn1)[C@@H](C)O)[C@@H](C)O)C(C)C)[C@@H](C)O)C(C)C)C(=O)N[C@@H](CC(C)C)C(=O)N[C@@H](CCC(=O)O)C(=O)NC(C)(C)C(=O)NCC(N)=O) [Peptide 466]	0.131 nM	0.0356 nM
H[Aib]QGTFTSDVSK[αMeF]LDTK([AEEA-AEEA-γGlu-γGlu-C18 diacid])RAQDFVQWLLE[Aib]G-NH2 [Peptide 468]	0.292 nM	0.0675 nM
H[Aib]QGTFTSDVSK[αMeF]LDTK([AEEA-AEEA-γGlu-γGlu-C20 diacid])RAQDFVQWLLE[Aib]G-NH2 (N-terminus assumed; SMILES CC(C)C[C@H](NC(=O)[C@H](Cc1c[nH]c2ccccc12)NC(=O)[C@H](CCC(N)=O)NC(=O)[C@@H](NC(=O)[C@H](Cc1ccccc1)NC(=O)[C@H](CC(=O)O)NC(=O)[C@H](CCC(N)=O)NC(=O)[C@H](C)NC(=O)[C@H](CCCNC(=N)N)NC(=O)[C@H](CCCCNC(=O)COCCOCCNC(=O)COCCOCCNC(=O)CC[C@H](NC(=O)CC[C@H](NC(=O)CCCCCCCCCCCCCCCCCCC(=O)O)C(=O)O)C(=O)O)NC(=O)[C@@H](NC(=O)[C@H](CC(=O)O)NC(=O)[C@H](CC(C)C)NC(=O)[C@](C)(Cc1ccccc1)NC(=O)[C@H](CCCCN)NC(=O)[C@H](CO)NC(=O)[C@@H](NC(=O)[C@H](CC(=O)O)NC(=O)[C@H](CO)NC(=O)[C@@H](NC(=O)[C@H](Cc1ccccc1)NC(=O)[C@@H](NC(=O)CNC(=O)[C@H](CCC(N)=O)NC(=O)C(C)(C)NC(=O)[C@@H](N)Cc1c[nH]cn1)[C@@H](C)O)[C@@H](C)O)C(C)C)[C@@H](C)O)C(C)C)C(=O)N[C@@H](CC(C)C)C(=O)N[C@@H](CCC(=O)O)C(=O)NC(C)(C)C(=O)NCC(N)=O) [Peptide 469]	0.538 nM	0.255 nM
H[Aib]QGTFTSDVSK[αMeF]LDKK([AEEA-AEEA-γGlu-C20 diacid])RARDFVQWLL[Aib]E-NH2 (N-terminus assumed; SMILES CC(C)C[C@H](NC(=O)[C@H](Cc1c[nH]c2ccccc12)NC(=O)[C@H](CCC(N)=O)NC(=O)[C@@H](NC(=O)[C@H](Cc1ccccc1)NC(=O)[C@H](CC(=O)O)NC(=O)[C@H](CCCNC(=N)N)NC(=O)[C@H](C)NC(=O)[C@H](CCCNC(=N)N)NC(=O)[C@H](CCCCNC(=O)COCCOCCNC(=O)COCCOCCNC(=O)CC[C@H](NC(=O)CCCCCCCCCCCCCCCCCCC(=O)O)C(=O)O)NC(=O)[C@H](CCCCN)NC(=O)[C@H](CC(=O)O)NC(=O)[C@H](CC(C)C)NC(=O)[C@](C)(Cc1ccccc1)NC(=O)[C@H](CCCCN)NC(=O)[C@H](CO)NC(=O)[C@@H](NC(=O)[C@H](CC(=O)O)NC(=O)[C@H](CO)NC(=O)[C@@H](NC(=O)[C@H](Cc1ccccc1)NC(=O)[C@@H](NC(=O)CNC(=O)[C@H](CCC(N)=O)NC(=O)C(C)(C)NC(=O)[C@@H](N)Cc1c[nH]cn1)[C@@H](C)O)[C@@H](C)O)C(C)C)C(C)C)C(=O)N[C@@H](CC(C)C)C(=O)NC(C)(C)C(=O)N[C@@H](CCC(=O)O)C(N)=O) [Peptide 470]	0.0303 nM	0.0559 nM
H[Aib]QGTFTSDVSK[αMeF]LDRK([AEEA-AEEA-γGlu-C20 diacid])RARDFVQWLL[Aib]E-NH2 [Peptide 471]	0.0636 nM	0.102 nM
H[Aib]QGTFTSDVSK[αMeF]LDKK([AEEA-AEEA-γGlu-C18 diacid])RARDFVQWLL[Aib]E-NH2 (N-terminus assumed; SMILES CC(C)C[C@H](NC(=O)[C@H](Cc1c[nH]c2ccccc12)NC(=O)[C@H](CCC(N)=O)NC(=O)[C@@H](NC(=O)[C@H](Cc1ccccc1)NC(=O)[C@H](CC(=O)O)NC(=O)[C@H](CCCNC(=N)N)NC(=O)[C@H](C)NC(=O)[C@H](CCCNC(=N)N)NC(=O)[C@H](CCCCNC(=O)COCCOCCNC(=O)COCCOCCNC(=O)CC[C@H](NC(=O)CCCCCCCCCCCCCCCCC(=O)O)C(=O)O)NC(=O)[C@H](CCCCN)NC(=O)[C@H](CC(=O)O)NC(=O)[C@H](CC(C)C)NC(=O)[C@](C)(Cc1ccccc1)NC(=O)[C@H](CCCCN)NC(=O)[C@H](CO)NC(=O)[C@@H](NC(=O)[C@H](CC(=O)O)NC(=O)[C@H](CO)NC(=O)[C@@H](NC(=O)[C@H](Cc1ccccc1)NC(=O)[C@@H](NC(=O)CNC(=O)[C@H](CCC(N)=O)NC(=O)C(C)(C)NC(=O)[C@@H](N)Cc1c[nH]cn1)[C@@H](C)O)[C@@H](C)O)C(C)C)C(C)C)C(=O)N[C@@H](CC(C)C)C(=O)NC(C)(C)C(=O)N[C@@H](CCC(=O)O)C(N)=O) [Peptide 472]	0.0111 nM	0.00763 nM
H[Aib]QGTFTSDVSK[αMeF]LDRK([AEEA-AEEA-γGlu-C18 diacid])RARDFVQWLL[Aib]E-NH2 (N-terminus assumed; SMILES CC(C)C[C@H](NC(=O)[C@H](Cc1c[nH]c2ccccc12)NC(=O)[C@H](CCC(N)=O)NC(=O)[C@@H](NC(=O)[C@H](Cc1ccccc1)NC(=O)[C@H](CC(=O)O)NC(=O)[C@H](CCCNC(=N)N)NC(=O)[C@H](C)NC(=O)[C@H](CCCNC(=N)N)NC(=O)[C@H](CCCCNC(=O)COCCOCCNC(=O)COCCOCCNC(=O)CC[C@H](NC(=O)CCCCCCCCCCCCCCCCC(=O)O)C(=O)O)NC(=O)[C@H](CCCNC(=N)N)NC(=O)[C@H](CC(=O)O)NC(=O)[C@H](CC(C)C)NC(=O)[C@](C)(Cc1ccccc1)NC(=O)[C@H](CCCCN)NC(=O)[C@H](CO)NC(=O)[C@@H](NC(=O)[C@H](CC(=O)O)NC(=O)[C@H](CO)NC(=O)[C@@H](NC(=O)[C@H](Cc1ccccc1)NC(=O)[C@@H](NC(=O)CNC(=O)[C@H](CCC(N)=O)NC(=O)C(C)(C)NC(=O)[C@@H](N)Cc1c[nH]cn1)[C@@H](C)O)[C@@H](C)O)C(C)C)C(C)C)C(=O)N[C@@H](CC(C)C)C(=O)NC(C)(C)C(=O)N[C@@H](CCC(=O)O)C(N)=O) [Peptide 473]	0.0141 nM	0.0115 nM
H[Aib]QGTFTSDVSK[αMeF]LDTK([AEEA-AEEA-γGlu-C18 diacid])RARDFVQWLLA[Aib]G-NH2 (N-terminus assumed; SMILES CC(C)C[C@H](NC(=O)[C@H](CC(C)C)NC(=O)[C@H](Cc1c[nH]c2ccccc12)NC(=O)[C@H](CCC(N)=O)NC(=O)[C@@H](NC(=O)[C@H](Cc1ccccc1)NC(=O)[C@H](CC(=O)O)NC(=O)[C@H](CCCNC(=N)N)NC(=O)[C@H](C)NC(=O)[C@H](CCCNC(=N)N)NC(=O)[C@H](CCCCNC(=O)COCCOCCNC(=O)COCCOCCNC(=O)CC[C@H](NC(=O)CCCCCCCCCCCCCCCCC(=O)O)C(=O)O)NC(=O)[C@@H](NC(=O)[C@H](CC(=O)O)NC(=O)[C@H](CC(C)C)NC(=O)[C@](C)(Cc1ccccc1)NC(=O)[C@H](CCCCN)NC(=O)[C@H](CO)NC(=O)[C@@H](NC(=O)[C@H](CC(=O)O)NC(=O)[C@H](CO)NC(=O)[C@@H](NC(=O)[C@H](Cc1ccccc1)NC(=O)[C@@H](NC(=O)CNC(=O)[C@H](CCC(N)=O)NC(=O)C(C)(C)NC(=O)[C@@H](N)Cc1c[nH]cn1)[C@@H](C)O)[C@@H](C)O)C(C)C)[C@@H](C)O)C(C)C)C(=O)N[C@@H](C)C(=O)NC(C)(C)C(=O)NCC(N)=O) [Peptide 474]	0.0569 nM	0.00804 nM
H[Aib]QGTFTSDVSK[αMeF]LDTK([AEEA-AEEA-γGlu-C20 diacid])RARDFVQWLLA[Aib]G-NH2 (N-terminus assumed; SMILES CC(C)C[C@H](NC(=O)[C@H](CC(C)C)NC(=O)[C@H](Cc1c[nH]c2ccccc12)NC(=O)[C@H](CCC(N)=O)NC(=O)[C@@H](NC(=O)[C@H](Cc1ccccc1)NC(=O)[C@H](CC(=O)O)NC(=O)[C@H](CCCNC(=N)N)NC(=O)[C@H](C)NC(=O)[C@H](CCCNC(=N)N)NC(=O)[C@H](CCCCNC(=O)COCCOCCNC(=O)COCCOCCNC(=O)CC[C@H](NC(=O)CCCCCCCCCCCCCCCCCCC(=O)O)C(=O)O)NC(=O)[C@@H](NC(=O)[C@H](CC(=O)O)NC(=O)[C@H](CC(C)C)NC(=O)[C@](C)(Cc1ccccc1)NC(=O)[C@H](CCCCN)NC(=O)[C@H](CO)NC(=O)[C@@H](NC(=O)[C@H](CC(=O)O)NC(=O)[C@H](CO)NC(=O)[C@@H](NC(=O)[C@H](Cc1ccccc1)NC(=O)[C@@H](NC(=O)CNC(=O)[C@H](CCC(N)=O)NC(=O)C(C)(C)NC(=O)[C@@H](N)Cc1c[nH]cn1)[C@@H](C)O)[C@@H](C)O)C(C)C)[C@@H](C)O)C(C)C)C(=O)N[C@@H](C)C(=O)NC(C)(C)C(=O)NCC(N)=O) [Peptide 475]	0.0615 nM	0.00675 nM
